From patent US20240010750A1 (Bayer, published 2024)
Numbering of substitutions follows the chain as printed. Read-outs that look alike come from different tables or passages of the source.

T1: human alpha2-Antiplasmin (human, UniProt P08697 40-491)
T1 sequence: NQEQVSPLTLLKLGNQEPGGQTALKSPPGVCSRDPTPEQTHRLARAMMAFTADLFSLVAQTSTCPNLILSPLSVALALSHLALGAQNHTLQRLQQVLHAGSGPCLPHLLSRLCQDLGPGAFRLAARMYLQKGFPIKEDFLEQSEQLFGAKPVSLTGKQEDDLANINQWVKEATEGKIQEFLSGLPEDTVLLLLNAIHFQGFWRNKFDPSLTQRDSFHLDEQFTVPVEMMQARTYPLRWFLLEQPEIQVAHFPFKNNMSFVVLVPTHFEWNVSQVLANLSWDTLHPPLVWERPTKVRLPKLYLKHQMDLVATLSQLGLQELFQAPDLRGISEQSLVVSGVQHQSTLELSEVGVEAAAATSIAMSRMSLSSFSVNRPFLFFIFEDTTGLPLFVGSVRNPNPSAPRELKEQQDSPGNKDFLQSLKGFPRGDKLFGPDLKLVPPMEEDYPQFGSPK

T2: rabbit alpha2-Antiplasmin (rabbit (Oryctolagus cuniculus))
T2 construct: Made in house in HEK293 cells, purified by Ni-IMAC and SEC (a His tag is implied but not described); also called rabbit A2AP; Oryctolagus cuniculus A2AP
T2 chain: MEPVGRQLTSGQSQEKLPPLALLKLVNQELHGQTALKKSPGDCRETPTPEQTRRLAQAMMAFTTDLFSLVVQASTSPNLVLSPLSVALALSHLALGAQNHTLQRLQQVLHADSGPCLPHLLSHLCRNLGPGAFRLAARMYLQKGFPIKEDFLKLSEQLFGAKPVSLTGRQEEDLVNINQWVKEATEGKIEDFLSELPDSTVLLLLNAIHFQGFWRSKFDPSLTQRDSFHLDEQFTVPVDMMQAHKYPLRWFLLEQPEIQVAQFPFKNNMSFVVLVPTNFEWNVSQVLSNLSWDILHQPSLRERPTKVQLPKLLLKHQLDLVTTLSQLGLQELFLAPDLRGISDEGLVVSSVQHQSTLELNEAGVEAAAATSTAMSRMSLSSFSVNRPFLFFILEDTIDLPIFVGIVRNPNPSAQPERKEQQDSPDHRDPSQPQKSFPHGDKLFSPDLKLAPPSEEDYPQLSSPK

T3: cynomolgus alpha2-Antiplasmin (cynomolgus (Macaca fascicularis), UniProt P08697 28-491 (human entry))
T3 construct: Made in house in the same way as the rabbit protein; also called cynomolgus A2AP; Macaca fascicularis A2AP
T3 chain: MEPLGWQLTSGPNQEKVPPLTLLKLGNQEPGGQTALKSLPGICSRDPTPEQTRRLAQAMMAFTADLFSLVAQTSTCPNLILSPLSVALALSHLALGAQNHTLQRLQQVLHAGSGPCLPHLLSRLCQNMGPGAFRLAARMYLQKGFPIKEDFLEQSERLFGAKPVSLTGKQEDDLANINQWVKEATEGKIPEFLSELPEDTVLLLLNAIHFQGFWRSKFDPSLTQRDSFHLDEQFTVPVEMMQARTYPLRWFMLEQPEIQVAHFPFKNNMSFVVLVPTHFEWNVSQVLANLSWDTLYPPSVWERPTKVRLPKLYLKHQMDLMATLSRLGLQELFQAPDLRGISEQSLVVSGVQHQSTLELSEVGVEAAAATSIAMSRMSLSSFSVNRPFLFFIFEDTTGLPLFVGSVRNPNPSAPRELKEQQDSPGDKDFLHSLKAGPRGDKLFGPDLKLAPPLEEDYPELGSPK

B1: TPP-14305 hIgG1 (antibody, V domains shown)
VH: EVQLLESGGGLVQPGGSLRLSCAASGFTFDDYAMSWVRQAPGKGLEWVSAIGTGGGTYYADSVKGRFTISRDNSKNTLYLQMNSLRAEDTAVYYCAREGYDSSGYYHLDYWGQGTLVTVSS
VL: QSVLTQPPSASGTPGQRVTISCTGSSSNIGATYDVHWYQQLPGTAPKLLIYSNNQRPSGVPDRFSGSKSGTSASLAISGLRSEDEADYYCWAWDDSLSGWVFGGGTKLTVLG
B2: TPP-17041 hIgG1 (antibody, V domains shown)
VH: B1 VH with D30S
VL: B1 VL with W91A, D95W
notes: Germline variant of TPP-14308
B3: TPP-14314 hIgG1 (antibody, V domains shown)
VH: B1 VH with G99Y, D109V
VL: QSVLTQPPSASGTPGQRVTISCTGSSSNIGATYDVHWYQQLPGTAPKLLIYSNNQRPSGVPDRFSGSKSGTSASLAISGLRSEDEADYYCAAWDVSLSGWVFGGGTKLTVL
notes: Human IgG1 lambda
B4: TPP-17051 hIgG1 (antibody, V domains shown)
VH: B1 VH with D31S, G56S
VL: B1 VL with W91A, D95W
notes: Germline variant of TPP-14308
B5: TPP-14308 hIgG1 (antibody, V domains shown)
VH: B1 VH
VL: B1 VL with W91A, D95W
notes: starting point of the germlining

Key:
human alpha2-Antiplasmin [1] = biological target: T1, human alpha2-Antiplasmin; experiment: cell-based or functional assay
human Plasmin = human Plasmin (human, UniProt P00747 97-580; P00747 581-810, limits assumed); experiment: cell-based or functional assay
human alpha2-Antiplasmin [2] = biological target: T1, human alpha2-Antiplasmin; experiment: cell-based or functional assay; remark: listed apart in the source
human alpha2-Antiplasmin [3] = biological target: T1, human alpha2-Antiplasmin; experiment: ELISA, coated antigen, 1st exp.
Method: (§1) A standard ELISA format was used for analyzing the binding affinity of Fabs of this invention to human and rabbit alpha-2-Antiplasmin, respectively. Antigens were coated to black 384 well Maxisorp microtiter plates (Nunc; catalogue number 460518), diluted to a concentration of 1 μg/ml in 1× Coating Buffer (Candor Bioscience; catalogue number 121125). Plates were incubated overnight at 4° C. After overnight incubation, plates were washed 2× with 50 μl/well using PBS+0.05% Tween 20. Following this, 50 μl/well of blocking buffer (Smart Block; Candor Bioscience; catalogue number 113500) was added and the plates were incubated for 1 hour at room temperature. Afterwards, plates were washed for 3× using […] PBS+0.05% Tween 20 buffer. Fabs of this invention were added at different concentrations in a final volume of 30 μl/well. Plates were incubated for 1 hour at room temperature. Following this incubation step, plates were washed for 3× using 50 μl/well of a PBS+0.05% Tween 20 buffer. For the detection of bound Fabs and full-length antibodies, the anti-Human Lambda Light Chains (Bound and Free)—Peroxidase antibody (Sigma; catalogue number A5175) was diluted by the factor of 1:10.000 in 10% Blocking Buffer. 30 μl/well of this diluted detection antibody was added and plates are incubated for 1 hour at room temperature. Following this incubation step, plates were washed for 3× using 50 μl/well of a PBS+0.05% Tween 20 buffer. As substrate, a mixture of 30 μl/well of 1:1000 diluted Amplex red (Invitrogen; catalogue number 12222; stock solution 10 mM in DMSO) and 1:10.000 of Hydrogen peroxide (Merck; catalogue number 107209; 30% stock solution) was added and the plates incubated for minutes in the dark.
(§2) For measurement, the Infinite f500 reader (Tecan) was used. Measurement mode: Fluorescence; Top reading; Ex 535 nm; Em 590 nm.
(§3) According to the methods described in Example 3 and Example 4, antibodies TPP-14323, TPP-14318, TPP-14314, TPP-14313, TPP-14308, TPP-14305, TPP-14303, TPP-14298, and TPP-14293 were tested for their ability to bind to and to block the activity of human alpha2-Antiplasmin in a dose-dependent manner. For each antibody, one dose response curve from two to three independent experiments performed in quadruplicate is shown as example in FIG. 7.1 to FIG. 7.18. (see Table 3.3)

human alpha2-Antiplasmin [4] = biological target: T1, human alpha2-Antiplasmin; experiment: ELISA, coated antigen, 2nd exp.
Method: as §1, §2, §3

human alpha2-Antiplasmin [5] = biological target: T1, human alpha2-Antiplasmin; experiment: ELISA, coated antigen, 3rd exp.
Method: as §1, §2, §3

human alpha2-Antiplasmin [6] = biological target: T1, human alpha2-Antiplasmin; experiment: cell-based or functional assay; remark: listed apart in the source
human alpha2-Antiplasmin [7] = biological target: T1, human alpha2-Antiplasmin; experiment: cell-based or functional assay; remark: listed apart in the source
human alpha2-Antiplasmin [8] = biological target: T1, human alpha2-Antiplasmin; experiment: cell-based or functional assay; remark: listed apart in the source
human alpha2-Antiplasmin [9] = biological target: T1, human alpha2-Antiplasmin; experiment: ELISA, coated antigen, quantified unpurified antibody, 1st exp.
human alpha2-Antiplasmin [10] = biological target: T1, human alpha2-Antiplasmin; experiment: ELISA, coated antigen, quantified unpurified antibody, 2nd exp.
human alpha2-Antiplasmin [11] = biological target: T1, human alpha2-Antiplasmin; experiment: SPR Biacore T200, antibody captured on protein G chip, A2AP as analyte, 25 C
Method: (§4) Binding assays were performed on a Biacore T200 instrument at 25° C. with a protein G sensor chip and assay buffer HBS-EP+. Antibodies were captured to ˜150 RU and analytes were used at concentrations between 1.56 and 200 nM for full kinetics. As interaction partner, alpha2-Antiplasmin from human, cynomolgus and rabbit was used. Regeneration was performed with glycine-HCl pH 1.5. Kinetic parameters were derived by fitting experimental sensorgrams to a 1:1 Langmuir binding model.

[12] = biological target: T2, rabbit alpha2-Antiplasmin; experiment: as above
Method: as §4

[13] = biological target: T3, cynomolgus alpha2-Antiplasmin; experiment: as above
Method: as §4

human alpha2-Antiplasmin [14] = biological target: T1, human alpha2-Antiplasmin; experiment: ELISA (Example 3), human alpha2-Antiplasmin coated, RFU
Method: as §1, with “As substrate, a mixture of 30 μl/well of 1:1000 diluted Amplex red (Invitrogen; catalogue number 12222; stock solution 10 mM in DMSO) and 1:10.000 of Hydrogen peroxide (Merck; catalogue number 107209; 30% stock solution) was added and the plates incubated for minutes in the dark.” left out
as §2
According to the method described in Example 3, these 12 antibodies were tested for ability to bind human and rabbit alpha2-Antiplasmin in a dose-dependent manner. Data generated were analyzed using the GraphPadPrism software. The binding activities of the antibodies were calculated as EC50 values. […]

human alpha2-Antiplasmin [15] = biological target: T1, human alpha2-Antiplasmin; experiment: ELISA, coated antigen, quantified unpurified antibody, 3rd exp.
Method: as §1, §2

human alpha2-Antiplasmin [16] = biological target: T1, human alpha2-Antiplasmin; experiment: cell-based or functional assay; remark: listed apart in the source

Chain of human Plasmin (P00747 97-580 limits assumed, chain 1 of 2): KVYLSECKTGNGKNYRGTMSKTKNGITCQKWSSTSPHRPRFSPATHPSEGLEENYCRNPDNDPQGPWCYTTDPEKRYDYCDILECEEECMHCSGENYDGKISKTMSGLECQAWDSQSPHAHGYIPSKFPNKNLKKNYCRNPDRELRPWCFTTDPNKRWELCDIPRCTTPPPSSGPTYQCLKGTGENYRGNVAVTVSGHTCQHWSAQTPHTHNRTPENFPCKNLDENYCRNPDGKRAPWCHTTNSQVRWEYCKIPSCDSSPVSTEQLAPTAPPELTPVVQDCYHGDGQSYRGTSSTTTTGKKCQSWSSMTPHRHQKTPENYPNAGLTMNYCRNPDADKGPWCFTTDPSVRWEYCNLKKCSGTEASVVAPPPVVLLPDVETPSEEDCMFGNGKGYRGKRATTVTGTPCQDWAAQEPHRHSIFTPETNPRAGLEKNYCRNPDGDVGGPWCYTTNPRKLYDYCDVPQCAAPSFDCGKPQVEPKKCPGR
Chain of human Plasmin (P00747 581-810 limits assumed, chain 2 of 2): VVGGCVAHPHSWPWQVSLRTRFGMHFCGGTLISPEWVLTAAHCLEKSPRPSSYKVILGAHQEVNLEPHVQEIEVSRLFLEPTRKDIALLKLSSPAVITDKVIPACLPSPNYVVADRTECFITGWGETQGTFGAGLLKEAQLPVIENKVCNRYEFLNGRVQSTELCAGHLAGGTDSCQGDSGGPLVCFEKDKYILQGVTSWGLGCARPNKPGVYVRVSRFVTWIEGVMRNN

Binder	function blocking activity [IC50 M], 1st exp. (human alpha2-Antiplasmin [1]) [nM]	function blocking activity [IC50 M], 2nd exp. (human alpha2-Antiplasmin [1]) [nM]	function blocking activity [IC50 M], 3rd exp. (human alpha2-Antiplasmin [1]) [nM]	IC50 [M], inhibition of plasmin proteolytic activity (human Plasmin) [M]	EC50 (human alpha2-Antiplasmin [3]) [nM]	EC50 (human alpha2-Antiplasmin [4]) [nM]	EC50 (human alpha2-Antiplasmin [5]) [nM]	IC50, A2AP function blocking assay (Example 10) (human alpha2-Antiplasmin [6]) [nM]	function blocking activity [IC50 M], 1st exp. (human alpha2-Antiplasmin [7]) [nM]	function blocking activity [IC50 M], 2nd exp. (human alpha2-Antiplasmin [7]) [nM]	EC50 (human alpha2-Antiplasmin [9]) [nM]	EC50 (human alpha2-Antiplasmin [10]) [nM]	Kd (human alpha2-Antiplasmin [11]) [nM]	Kd [12] [nM]	Kd [13] [nM]	other results
B1	64	69	66	> 2e-06	15	16	16	–	–	–	–	–	–	–	–	EC50 (read off the curve); function blocking assay (Example 4), RFU of plasmin substrate cleavage (human alpha2-Antiplasmin [2]): ~60 nM
B2	–	–	–	> 1e-05	–	–	–	0.64	0.56	0.69	0.19	0.23	11	18	7.6	EC50 (read off the curve); function blocking assay (Example 4), RFU of plasmin substrate cleavage (human alpha2-Antiplasmin [8]): ~0.5 nM
B3	68	73	69	> 2e-06	8.1	82	84	–	–	–	–	–	–	–	–	EC50 (read off the curve) (human alpha2-Antiplasmin [14]): ~8 nM
B4	–	–	–	> 1e-05	–	–	–	0.33	0.33	0.44	0.11	0.16	18	17	13	EC50 (human alpha2-Antiplasmin [15]): 0.22 nM
B5	2.4	30	24	> 5e-06	5.7	61	60	–	–	–	–	–	3.9	7.8	3.1	EC50 (read off the curve); function blocking assay (Example 4), RFU of plasmin substrate cleavage (human alpha2-Antiplasmin [16]): ~2 nM; EC50 (read off the curve); function blocking assay (Example 4), RFU of plasmin substrate cleavage; comparator curve [same curve in 8.4, D00008 8.6, 8.8, D00009 8.10, 8.12] (human alpha2-Antiplasmin [8]): ~2 nM
